This passage reports binding result and EC50 results from patent WO2013190679A1 (dated 2013).

Assay [1] concerns the target T1, recombinant human LOX-1 protein (61-273aa) (human, UniProt P78380 61-273). Description: ELISA, LOX-1 (61-273aa) immobilised, HRP anti-mouse IgG. (In an ELISA, binding on a coated surface is turned into a signal by an enzyme label.)
Assay [2] addresses T2, BSA (negative control, Sigma) (UniProt P02769 25-607). The assay can be described thus: ELISA, BSA immobilised, HRP anti-mouse IgG.
Assay [3] concerns the target T2, BSA (negative control, Sigma). Description: ELISA, BSA immobilised, HRP anti-V5 tag.
The target of assay [4] is T1, recombinant human LOX-1 protein …. The assay can be described thus: ELISA on immobilised LOX-1; protein concentration at the inflection point of a 4-parameter logistic fit.

As usually defined, the EC50 is the concentration needed to bring the measured effect to its halfway point.

T2 sequence (P02769 25-607 limits assumed): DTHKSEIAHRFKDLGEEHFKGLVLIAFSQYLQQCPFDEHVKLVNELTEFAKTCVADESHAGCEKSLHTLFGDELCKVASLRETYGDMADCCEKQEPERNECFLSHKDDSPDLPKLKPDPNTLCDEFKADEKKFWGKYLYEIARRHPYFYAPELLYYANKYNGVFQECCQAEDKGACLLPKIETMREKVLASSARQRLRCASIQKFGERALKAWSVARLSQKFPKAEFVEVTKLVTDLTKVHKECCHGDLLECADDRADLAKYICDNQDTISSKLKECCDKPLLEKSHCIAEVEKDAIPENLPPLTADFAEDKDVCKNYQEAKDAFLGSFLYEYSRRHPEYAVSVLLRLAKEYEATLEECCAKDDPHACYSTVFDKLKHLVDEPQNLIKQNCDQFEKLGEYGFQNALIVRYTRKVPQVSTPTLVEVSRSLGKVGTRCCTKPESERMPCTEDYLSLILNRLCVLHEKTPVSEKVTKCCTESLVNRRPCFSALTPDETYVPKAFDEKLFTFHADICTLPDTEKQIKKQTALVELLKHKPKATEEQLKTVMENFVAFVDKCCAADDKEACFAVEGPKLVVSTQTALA

B1: mouse anti-LOX-1 monoclonal antibody #10-1 (antibody, V domains shown)
VH: EVKLLESGGGLVQPGGSLKLSCAVSGFDFSRYWMSWVRQAPGKGLEWIGEINPDSSTINFTPSLKDKFIVSRDNAKNTLYLQMSKVRSEDTALYYCARNDVLLGAMDYWGQGTSVTVSS
VL: DVLMTQTPLSLPVSLGDQASISCRSSQTIVHSNGKTYLEWYLQKPGQSPKLLIYKVSNRFSGVPDRFSGSGSGTDFTLKISRVEAEDLGVYYCFQGSHVPLTFGAGTKLELK
notes: Whole mouse IgG1, kappa from the hybridoma; also called anti-LOX-1 antibody #10-1; IgG type of mouse anti-LOX-1 antibody #10-1
Regarding B1, the binding result in assay [1] is “binds”; in assay [2], “no binding”.

B2: Fv-type anti-LOX-1 antibody (scFv)
scFv: EVKLLESGGGLVQPGGSLKLSCAVSGFDFSRYWMSWVRQAPGKGLEWIGEINPDSSTINFTPSLKDKFIVSRDNAKNTLYLQMSKVRSEDTALYYCARNDVLLGAMDYWGQGTSVTVSSGGGGSGGGGSGGGGSDVLMTQTPLSLPVSLGDQASISCRSSQTIVHSNGKTYLEWYLQKPGQSPKLLIYKVSNRFSGVPDRFSGSGSGTDFTLKISRVEAEDLGVYYCFQGSHVPLTFGAGTKLELK
notes: The VH gene was amplified with the #10-1 heavy chain secretion signal; Expressed in FreeStyle 293 and purified by the His tag; also called Fv type antibody; Fv-type antibody; not shown: C-terminal V5 and 6xHis tag from the pEF6/V5/His vector
B2: the binding result in assay [3] is given as “no binding”. Further, the EC50 in assay [4] was 2.91 µg/mL.
